# In the DeepSol protein solubility set:
# Test: soluble on expression in E. coli; label from the status in PepcDB or PDB records
row,Sequence,soluble on expression in E. coli
1,MGSDKIHHHHHHMFDRYEAGETAVLVHIDFSDEERREDLVELQLLVESAGARSVGVITGSRRSPDRKFFIGSGKAEELAALVAATEANVVIFNHALSPAQERNLEQVCQCRVLDRTSLILDIFAQRARTHEGKLQVELAQLRHMSTRLVRGWTHLERQKGGIGLRGPGETQLETDRRLLRGRIKNINKRLERVDKQREQSRRARKRSDMPTVSLVGYTNAGKSTLFNALTSSDVYAADQLFATLDPTLRKLDLPDGAVILADTVGFIRHLPHDLVAAFKATLQETRQAELLLHIVDCADENMADNFEQVQSVLKEIDADEVMQLIVCNKIDLLEDVTPRIEYDDRGKPVRVWVSAHKRLGFDLLLKAITELIGEVIHEFTLRIPATAGHYLGQFYRLDAIQQKEYDDLGNCILSVRLSDADWRRLAKQSQGELETFIFDPSIEKAVC,not soluble
2,MGSDKIHHHHHHLSTSQPAEPGDEIARLGALAADFRRRLELDPGAIYPAHAECLWRLGNLQIAQGDVEAGLLSISDSVGLYRAIAQAQPDSYAVQLASLLNSQSNMLAEASHLEEARAIASDAVEHARSAMDDYGDQARFVLVSALINLAGLKMRSGDTAGTVDELAQAVEVFRDGGTAGQPFLGSMVEALHRAAMAFTEVGLWNEAIDTRRLLIGLFGQAPPSAVVQLLMLTLQQASVGLAGTGDTAKALVHANEAVDLARMLFAADGQANRLALAQAVGNLAGRHHDAGSLKEALDLSLEAVDLFQDAVSMDPIHAVPSLIVTLDCMASILTALGLPDQAATVREQRSQLQETLEIIAPRAN,not soluble
3,MSLSIFEHFQARYEAAKDEELSIQDFLALCKENKSAYANAAERLLLAIGEPEMIDTSKHSRLSRIFSNRVIARYKTFEDFYGMEEAIEQIVAYLKHAAQGLEERKQILYLLGPVGGGKSSLAEKLKALMQQMPIYVLSANGQRSPVNDHPFCLFDVNEDGELLKQEYGIDRRYLRSIMSPWAAKRLHEFGGDITKFKVVKVRPSILDQIAVAKTEPGDENNQDISSLVGKVDIRKLEHFSQDDPDAYSYSGALCRANQGLMEFVEMFKAPIKVLHPLLTATQEGNYNGTEGLSALPFDGMILAHSNESEWQTFRNNKNNEAFLDRVYIVKVPYCLRVSEEVKIYQKLLDHSELSKAPCAPSTLDLLAQFSVLSRLKVPENSSLFSKMRVYDGETLKDTDPKAKSYQEYRDYAGVDEGMSGLSTRFAFKILSRVFNFDHSEVAANPVHLFYVIEQQVEREQFPQETADRYNEFLKGYLIPRYVEFIGKEIQTAYLESYSEYGQNIFDRYVTYADFWIQDQEYRDPETGQLFDRSALNSELEKIEKTAGISNPKDFRNEIVNFVLRARANNNGQNPVWTSYEKLRTVIEKKMFSNTEDLLPVISFNAKTSSDDQKKHDDFVARMMEKGYTEKQVRLLSEWYLRVRKSSEGHHHHHH,soluble
4,EVQLQESGPSLVKPSQTLSLTCSVTGDSVTSDFWSWIRKFPGNKLEYMGYISYSGSTYYHPSLKSRISITRDTSKNQYYLQLNSVTTEDTATYYCASWGGDVWGAGTTVTVSSAKTTAPSVYPLAPVCGDTTGSSVTLGCLVKGYFPEPVTLTWNSGSLSSGVHTFPAVLQSDLYTLSSSVTVTSSTWPSQSITCNVAHPASSTKVDKKI,soluble
5,GMSEPVFPTPEAAEDAFYAAFEARSLDDMMAVWARDDHVACIHPLAAPLNGRAAVAAGWRSMFGAAGRFRLQVKAVHEIRQADHVIRIVDEFLTIGDETAPRPAILATNVYRREADGWRMVLHHASPLQVGAKAGADTPPVVFH,soluble
6,MSLGDVEEWVNPDQSTSQPVTKAALVEKTVAMTEAGKFASFFQEGELETIQKLRVSGPLDASDIDAIRYQMPRLEVLDMKEVELIESDKTYGAEDHREHYKLKKGVITPKMLQCFSLLVTLVLPKDITEIEDYGIYGNKNLVSIEIPVTVKKVGAHVFKSCSSLQKVDLPNVETLGERVFESCGKLTKVTLSPDLQVIPDYAFQYCGSLADVPLPSSLVSIGVSAFRDCSSLVDVPLPSSLVSIGTGAFANCKSLTSVDMPNTVTTLENGTYQNCTNLKDVKLSDNLKRIGAENDHYSGSSFEGCQNLASIDIPASVSWINSFSFKNCVNLKTVTFHEGLQVIGGKSFQGCSSLVSVSIPKSVTSIGDESFEYCSSLNEMNLSQEGTPEINSSAFAYSGLSSITIPETVTSVGGGILNGCSRLTSIFWECNRDVPNIIDLNSTSCLLYLSHDVKCPSTWKNVIEPGGVAQTIVLKNEKRYLCPKAFTANKISYTREFTMKTIPGKAAGWQTIILPFSVQTITDKDGNRLAPFMAEGDGIWKRFWLRELQADGTYKDVTAIEANKPYLIAMPNAEEYASEYCISGNVTFEADNVSLGETPEIVPTDGGAYSMYGTYDWVTGTRKVYALNLDNWSDGSVYYEKGSVFVPSLRDVAPFECYLQNNNPSASTRGFIGIVGSHASTRAGEGHHHHHH,soluble
7,MSLYKDDSLTLHTDLYQINMMQVYFNQGIHNKRAVFEVFFRKEPFANGYAVFAGLERMIAYLQGLSFSETDIAYLEELGYPADFVAYLKEFKLELSVKSAKEGDLVFANEPIVQIEGPLAQCQLVETAILNIVNFQTLIATKAARIRSVIEDEPLLEFGTRRAQEMDAAIWGTRAAVIGGANATSNVRAGKLFGIPVSGTHAHALVQAYGNDYDAFMAYAGTHKDCVFLVDTYDTLRLGVPAAIRVASELGDKINFLGVRIDSGDMAYLSKKVRKLLDEAGYPHAKIYASNDLDENTILNLKMQKAKIDIWGVGTKLITAYDQPALGAVYKIVSIEDDNGVMQDTIKLSNNAEKVSTPGKKQVWRITSRAKGKSEGDYITFTDTDVNSLDEIDMFHPTYTYINKKVRDFDAVPLLVDIFDQGKLVYTQPSLSDIQDYARREFDKLWDEYKRVLNPQDYPVDLACDVWQNKVNLIDRIRKEAYEKGDVKEGHHHHHH,soluble
8,MAHHHHHHMSLSIHTNYGDIKIELFCYEVPKTCKNFLALCASGYYDNTKFHKNIKGFAIQGGDPTNTGKGGQSIYGKYFEDEFDSTLKHDKRGIVSMANKGKPNTNGSQFFITYSRQPHLNGIYPVFGKVIDGMDVLSVLENEPVGEKSRPIKDIIIETITIHANPIAEEESVDN,not soluble
9,MGSDKIHHHHHHFVSIELKDRSLVNNQYKGKIKSANLSVDYEINQVMKDIDKLGLNTVNVPIIINVESINSDIMSIDNNSKEKAIKLIKKLNKKGISTILEAYPWIENGKLYETDWNPINKKRFFYTWQNAILNELIIDVANPLDVNVLNIGSNFVHLEEYQQNWGEIIDFVQSKFDGLVTYRTNWWYTKKDDLSSKLFYEQKLNNNFFDKLDFISIAAYFELSNKPVNTVDELISALHSSTVNNRGQNIKQEIYNLYKAHRKPIFFGELGFSNRESASSQPWNHTPSKAVNGEEQARCFEAYKKVFENEDWINGFSVFCVGKIDDEKNFYPSKESIKVIKSWYE,not soluble
10,MANHELDQLRKQVDEINLQLLHLLNKRGEIVQKIGEQKQVQGTKRFDPVREREVLDMIAENNEGPFETSTVQHIFKTIFKASLELQEDDNRKALLVSRKKKQENTIVDVKGELIGNGTQTFIMGPCAVESLEQVRQVGQAMKDQGLKLMRGGAFKPRTSPYDFQGLGVEGLQILRQVADEFDLAIISEILNPNDVEMALDYVDVIQVGARNMQNFDLLRAVGKVNKPVLLKRGLAATIDEFINAAEYIIAQGNDQIILCERGIRTYERATRNTLDISAVPILKKETHLPVVVDVTHSTGRRDLLLPTAKAALAIGADAVMAEVHPDPAVALSDSAQQMDIPEFHRFMEELKGFKNKLS,not soluble
11,MSLKITFTDKALDYLKRREILNKILILIADDGGGKYSIKGGGCAIGSHFSIIYVDKVDPDYPIKLENDQGINIYTSKYDTTMMGPNLVVDYANASLNLKSDEGLLDGGVDIGNGAELIKAQKNVKMTGVEWRCEGHHHHHH,soluble
12,IQQFNYGVRLVMSDNMQKILEYPNKTLSLGEKYYTGKTIGEIWGYKTIGIAQTQEEMDKHLANGGKPNWGSAWGAGDIMYANIDGKDGVNSGANTVNDHGDLKIIGNSTPRYNFGLTLDGSWKGLDFSLFIQGVMKRDYMLDGPYFWGANGGMWQSCVFKEHLDYWRPEGDPLGANTNAYYPKPYFSSNKNQKTQSGYLQNAAYCRLKNAQIGYTLPKAWTKKAAMESVRVYVSGDNLLTISGISDIFDPETLGGDWGPGKLYPLQRTISIGLNVNF,not soluble
